The results in this text go back to article PMC9364032, “RNA induces unique tau strains and stabilizes Alzheimer’s disease seeds”.

Details in all cases: protein: recombinant; single strand
Series [1] has as its target T1, tau 2N4R full-length monomer, WT (UniProt P10636-8 1-441). As to the kind of experiment: BLI; apparent Kd, 2:1 model; kon 1.0e4 M-1 s-1, koff 1.4e-4 s-1; mean of 3; BLI (Octet, AR2G sensors, tau immobilized), nucleic acid 0.13-41 uM; buffer, salt, pH and temperature not given in the material.
The target in series [2] is T1, tau 2N4R full-length monomer, WT. As to the kind of experiment: BLI; apparent Kd, 2:1 model; kon 1.7e3 M-1 s-1, koff 4.2e-4 s-1; mean of 3; BLI (Octet, AR2G sensors, tau immobilized), nucleic acid 0.13-41 uM; buffer, salt, pH and temperature not given in the material.
For series [3] the target is unchanged. As to the kind of experiment: BLI; apparent Kd, 2:1 model; kon 2.8e4 M-1 s-1, koff 3.4e-4 s-1; mean of 3; BLI (Octet, AR2G sensors, tau immobilized), nucleic acid 0.13-41 uM; buffer, salt, pH and temperature not given in the material.

T1 sequence (P10636 other isoform, or with tags, fused parts or gaps): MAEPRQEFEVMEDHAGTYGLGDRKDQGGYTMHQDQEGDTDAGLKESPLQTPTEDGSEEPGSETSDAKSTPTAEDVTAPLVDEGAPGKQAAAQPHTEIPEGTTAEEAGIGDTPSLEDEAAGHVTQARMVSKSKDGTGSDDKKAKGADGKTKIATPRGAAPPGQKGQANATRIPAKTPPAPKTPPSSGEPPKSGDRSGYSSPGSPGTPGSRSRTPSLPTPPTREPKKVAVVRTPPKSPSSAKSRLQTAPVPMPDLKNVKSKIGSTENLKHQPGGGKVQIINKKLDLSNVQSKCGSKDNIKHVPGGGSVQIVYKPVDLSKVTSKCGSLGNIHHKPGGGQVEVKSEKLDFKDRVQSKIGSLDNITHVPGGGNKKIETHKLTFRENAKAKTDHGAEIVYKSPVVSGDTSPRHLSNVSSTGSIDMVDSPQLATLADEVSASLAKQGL

AAAAAAAAAAAAAAAAAAAAAAAAAAAAAAAAAAAAAAAA (ssRNA) [PolyA 40-mer RNA]: in series [1], the Kd worked out at 20 nM.
As for UUUUUUUUUUUUUUUUUUUUUUUUUUUUUUUUUUUUUUUU (ssRNA) [PolyU 40-mer RNA], the Kd in series [2] came to 254 nM.
Consider GTTAAGTCCCGAACTAGATGTGACCTAACGGTAAGAGAAT (ssDNA) [ssDNA Seq1 (random 40-mer)], for which the Kd in series [3] is 12 nM.
